Measured values reported in IntAct's records for PubMed 22493223.

B1: Mitotic spindle assembly checkpoint protein MAD1 (Homo sapiens), Q9Y6D9 (parent)
chain: MEDLGENTMVLSTLRSLNNFISQRVEGGSGLDISTSAPGSLQMQYQQSMQLEERAEQIRSKSHLIQVEREKMQMELSHKRARVELERAASTSARNYEREVDRNQELLTRIRQLQEREAGAEEKMQEQLERNRQCQQNLDAASKRLREKEDSLAQAGETINALKGRISELQWSVMDQEMRVKRLESEKQELQEQLDLQHKKCQEANQKIQELQASQEARADHEQQIKDLEQKLSLQEQDAAIVKNMKSELVRLPRLERELKQLREESAHLREMRETNGLLQEELEGLQRKLGRQEKMQETLVGLELENERLLAKLQSWERLDQTMGLSIRTPEDLSRFVVELQQRELALKDKNSAVTSSARGLEKARQQLQEELRQVSGQLLEERKKRETHEALARRLQKRVLLLTKERDGMRAILGSYDSELTPAEYSPQLTRRMREAEDMVQKVHSHSAEMEAQLSQALEELGGQKQRADMLEMELKMLKSQSSSAEQSFLFSREEADTLRLKVEELEGERSRLEEEKRMLEAQLERRALQGDYDQSRTKVLHMSLNPTSVARQRLREDHSQLQAECERLRGLLRAMERGGTVPADLEAAAASLPSSKEVAELKKQVESAELKNQRLKEVFQTKIQEFRKACYTLTGYQIDITTENQYRLTSLYAEHPGDCLIFKATSPSGSKMQLLETEFSHTVGELIEVHLRRQDSIPAFLSSLTLELFSRQTVA

Variants of: B1
Settings: with md2l1_human MAD2L1, Q13257
Sequence of md2l1_human MAD2L1, Q13257 (Q13257 whole entry): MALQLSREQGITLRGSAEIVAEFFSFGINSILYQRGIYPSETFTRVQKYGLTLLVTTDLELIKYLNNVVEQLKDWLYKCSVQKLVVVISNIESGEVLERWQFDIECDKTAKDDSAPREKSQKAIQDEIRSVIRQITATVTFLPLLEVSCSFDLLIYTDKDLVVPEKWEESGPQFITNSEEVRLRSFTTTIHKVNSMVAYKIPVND

effect of a mutation on the interaction	Variant
disrupting interaction strength	K541A;V542A;L543A;H544A;M545A
